Measurements reported in patent publication US20230416396A1 (Regeneron, published 2023).
Read-outs that look alike come from different tables or passages of the source.

Columns and labels:
human 4-1BB on cells [1] = target: T1, human 4-1BB on cells (human, UniProt Q07011 24-255); experiment: cell-based or functional assay
[2] = target: T2, human 4-1BB expressed with a C-terminal murine Fc tag (human, UniProt Q07011 24-186); experiment: SPR Biacore 8k, antibody captured by anti-human Fc, h4-1BB.mFc as analyte, 25 C
T2 construct: also called h4-1BB.mFc; REGN3585; not shown: C-terminal murine Fc tag
In short: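 Antibodies captured on anti-human Fc CM5 surface; h4-1BB analyte binding in HBS-EP pH 7.4 at 25° C., association 5 min, dissociation 10 min. ka and kd from 1:1 fit of sensorgrams; KD and t½ calculated from rate constants.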

human 4-1BB on cells [3] = target: T1, human 4-1BB on cells; experiment: flow cytometry on HEK293/h4-1BB cells, APC anti-human secondary
Protocol: The ability of the multispecific antigen binding molecules to bind cells was assessed using flow cytometry. Cell lines were chosen to determine the ability of both the anti-CD38 and anti-4-1BB arms to bind their targets. […] Binding was detected by using a labeled secondary antibody and measuring fluorescence on a flow cytometer.
HEK293 and HEK293/4-1BB cells were lifted with trypsin, washed and resuspended in stain buffer (2% FBS in PBS) and added to wells of a 96 well V-bottom plate (3×10⁵ cells/well). A 1:5, 9-point, dose titration of test antibodies was diluted in stain buffer and added to cells to a final concentration ranging from 1.3 pM to 100 nM (a “no antibody” control was included as the ninth point ([…]) labeled as “secondary only”). Cells and antibodies were incubated for 30 min on ice and then washed in stain buffer. Cells were resuspended in 2 ug/ml allophycocyanin (APC) conjugated goat-anti human secondary antibody and incubated for 30 min on ice. Cells were then washed and resuspended in viability dye (according to the manufacturer's protocol) and incubated for 30 min on ice. Cells were then washed with stain buffer and resuspended in 2% PFA for 30 min on ice. After washing, cells were filtered and analyzed by flow cytometry to determine the geometric mean fluorescence intensity (gMFI), which was subsequently plotted using GraphPad Prism software. EC₅₀ values of the antibodies were determined from a 4-parameter logistic equation over a 9-point dose response curve (including secondary only control).

human 4-1BB on cells [4] = target: T1, human 4-1BB on cells; experiment: cell-based or functional assay; remark: listed apart in the source
human 4-1BB on cells [5] = target: T1, human 4-1BB on cells; experiment: cell-based or functional assay; remark: listed apart in the source
human 4-1BB on cells [6] = target: T1, human 4-1BB on cells; experiment: cell-based or functional assay; remark: listed apart in the source
human 4-1BB on cells [7] = target: T1, human 4-1BB on cells; experiment: cell-based or functional assay; remark: listed apart in the source
[8] = target: T2, human 4-1BB expressed with a C-terminal …; experiment: SPR Biacore 4000, h4-1BB.mFc captured by anti-mouse Fc, antibody as analyte, 25 C
In short: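 Antibody analyte injected at 100 to 6.25 nM (4-fold dilutions) over captured h4-1BB.mFc in HBS-EP pH 7.4 at 30 μL/min and 25° C, with 5 min association and 10 min dissociation. ka and kd from 1:1 model fits of sensorgrams; KD and t½ calculated from the rate constants.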

human 4-1BB on cells [9] = target: T1, human 4-1BB on cells; experiment: cell-based or functional assay; remark: listed apart in the source

T1 sequence (Q07011 24-255): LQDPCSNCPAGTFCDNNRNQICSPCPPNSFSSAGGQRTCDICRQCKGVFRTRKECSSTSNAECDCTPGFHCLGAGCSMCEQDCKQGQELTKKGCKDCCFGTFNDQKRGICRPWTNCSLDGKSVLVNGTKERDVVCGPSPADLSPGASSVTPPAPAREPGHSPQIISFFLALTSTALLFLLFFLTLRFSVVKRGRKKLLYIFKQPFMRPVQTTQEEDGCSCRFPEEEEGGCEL
T2 sequence (Q07011 24-186 limits assumed): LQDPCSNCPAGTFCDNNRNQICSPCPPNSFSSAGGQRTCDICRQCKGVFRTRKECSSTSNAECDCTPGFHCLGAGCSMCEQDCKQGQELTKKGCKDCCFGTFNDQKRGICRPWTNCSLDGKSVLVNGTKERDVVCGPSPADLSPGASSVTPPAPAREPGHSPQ

B1: REGN7647 (bispecific antibody, human IgG4 S228P, kappa)
heavy 1: EVQLVESGGGLVQPGRSLRLSCGASGFTFDDYVMHWVRQIPGKGLEWVAGISWNSGSIGYADSVKGRFTISRDNAKNSLYLQMNSLRAEDTALYFCAKDHIDPYSSSLYYYYGMDVWGQGTTVTVSSASTKGPSVFPLAPCSRSTSESTAALGCLVKDYFPEPVTVSWNSGALTSGVHTFPAVLQSSGLYSLSSVVTVPSSSLGTKTYTCNVDHKPSNTKVDKRVESKYGPPGGGGSGGGGSGGGGSEVQLVESGGGLVQPGRSLRLSCGASGFTFDDYVMHWVRQIPGKGLEWVAGISWNSGSIGYADSVKGRFTISRDNAKNSLYLQMNSLRAEDTALYFCAKDHIDPYSSSLYYYYGMDVWGQGTTVTVSSASTKGPSVFPLAPCSRSTSESTAALGCLVKDYFPEPVTVSWNSGALTSGVHTFPAVLQSSGLYSLSSVVTVPSSSLGTKTYTCNVDHKPSNTKVDKRVESKYGPPCPPCPAPPVAGPSVFLFPPKPKDTLMISRTPEVTCVVVDVSQEDPEVQFNWYVDGVEVHNAKTKPREEQFNSTYRVVSVLTVLHQDWLNGKEYKCKVSNKGLPSSIEKTISKAKGQPREPQVYTLPPSQEEMTKNQVSLTCLVKGFYPSDIAVEWESNGQPENNYKTTPPVLDSDGSFFLYSRLTVDKSRWQEGNVFSCSVMHEALHNRFTQKSLSLSPGK
heavy 2: EVQLVESGGGLVQPGRSLRLSCAASGFTFDDYAMHWVRQAPGKGLEWVSGISWKSDNIGYADSVKGRFTISRDNAKNSLYLQMNSLRAEDTALYYCAKALGGWKFDYYYGMDVWGQGTTVTVSSASTKGPSVFPLAPCSRSTSESTAALGCLVKDYFPEPVTVSWNSGALTSGVHTFPAVLQSSGLYSLSSVVTVPSSSLGTKTYTCNVDHKPSNTKVDKRVESKYGPPCPPCPAPPVAGPSVFLFPPKPKDTLMISRTPEVTCVVVDVSQEDPEVQFNWYVDGVEVHNAKTKPREEQFNSTYRVVSVLTVLHQDWLNGKEYKCKVSNKGLPSSIEKTISKAKGQPREPQVYTLPPSQEEMTKNQVSLTCLVKGFYPSDIAVEWESNGQPENNYKTTPPVLDSDGSFFLYSRLTVDKSRWQEGNVFSCSVMHEALHNHYTQKSLSLSLGK
light: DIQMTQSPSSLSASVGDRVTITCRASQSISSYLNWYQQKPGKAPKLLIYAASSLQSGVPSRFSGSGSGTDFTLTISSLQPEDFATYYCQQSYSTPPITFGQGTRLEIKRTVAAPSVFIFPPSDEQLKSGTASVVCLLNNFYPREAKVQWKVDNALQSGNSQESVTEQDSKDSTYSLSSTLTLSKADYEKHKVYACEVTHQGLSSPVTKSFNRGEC
notes: 1+2 format, hIgG4P-PVA; The linker between the two 4-1BB Fabs is (G4S)3v15; also called CD38x4-1BB (1 + 2), (G4S)3v15; 26812P2 x 35333P2 (IN) + 35333P2 (OUT)
B1 was tested, and the “EC50 of luciferase activity, HEK293/NFkB-Luc/h4-1BB reporter + OPM2” value (human 4-1BB on cells [1]) was 0.00735 nM, the “MAX luciferase activity, HEK293/NFkB-Luc/h4-1BB reporter + HEK293/CD20” value (human 4-1BB on cells [1]) was 1.2e+06 RLU and the “MAX luciferase activity, HEK293/NFkB-Luc/h4-1BB reporter + HEK293/CD20/CD38” value (human 4-1BB on cells [1]) was 2.4e+06 RLU. For the same binder, the “MAX luciferase activity, HEK293/NFkB-Luc/h4-1BB reporter + MOLP-8” value (human 4-1BB on cells [1]) was 2.3e+06 RLU, the “MAX luciferase activity, HEK293/NFkB-Luc/h4-1BB reporter + OPM2” value (human 4-1BB on cells [1]) was 1.9e+06 RLU and the “100 nM h4-1BB.mFc Bind (RU)” value [2] was 224 RU. It also gave a Kd [2] of 1.18 nM, a koff [2] of 0.000231 s⁻¹ and a kon [2] of 195000 M⁻¹ s⁻¹. The t½ [2] was 50 min, the EC50 (human 4-1BB on cells [3]) was 0.608 nM and the “MAX gMFI” value (human 4-1BB on cells [3]) was 1.4e+06 gMFI. The “EC50 of IL-2 release, T cells + HEK293/CD20/CD38 + REGN2281” value (human 4-1BB on cells [4]) was 0.0535 nM, the “EC50 of IL-2 release, T cells + MOLP-8 + REGN5458” value (human 4-1BB on cells [4]) was 0.216 nM and the “EC50 of IL-2 release, T cells + NALM-6” value (human 4-1BB on cells [4]) was 0.0485 nM. The “MAX IL-2 release, T cells + HEK293/CD20 + REGN2281” value (human 4-1BB on cells [4]) was 61 pg/mL, the “MAX IL-2 release, T cells + HEK293/CD20/CD38 + REGN2281” value (human 4-1BB on cells [4]) was 781 pg/mL and the “MAX IL-2 release, T cells + MOLP-8 + IsoC” value (human 4-1BB on cells [4]) was 73 pg/mL. The “MAX IL-2 release, T cells + MOLP-8 + REGN5458” value (human 4-1BB on cells [4]) was 66 pg/mL, the “MAX IL-2 release, T cells + NALM-6” value (human 4-1BB on cells [4]) was 192 pg/mL and the “EC50 of IL-2 release, T cells + HEK293/CD20/CD38 + REGN1979” value (human 4-1BB on cells [5]) was 0.0058 nM. For the same binder, the “EC50 of IL-2 release, T cells + MOLP-8 + IsoC” value (human 4-1BB on cells [5]) was 0.00221 nM, the “EC50 of IL-2 release, T cells + MOLP-8 + REGN5458” value (human 4-1BB on cells [5]) was 0.0231 nM and the “MAX IL-2 release, T cells + HEK293/CD20 + REGN1979” value (human 4-1BB on cells [5]) was 199 pg/mL. For the same binder, the “MAX IL-2 release, T cells + HEK293/CD20/CD38 + IsoC” value (human 4-1BB on cells [5]) was 18 pg/mL, the “MAX IL-2 release, T cells + HEK293/CD20/CD38 + REGN1979” value (human 4-1BB on cells [5]) was 2850 pg/mL and the “MAX IL-2 release, T cells + MOLP-8 + IsoC” value (human 4-1BB on cells [5]) was 331 pg/mL. For the same binder, the “MAX IL-2 release, T cells + MOLP-8 + REGN5458” value (human 4-1BB on cells [5]) was 692 pg/mL, the “EC50 of IFNγ release, T cells + HEK293/CD20/CD38 + REGN2281” value (human 4-1BB on cells [6]) was 0.0617 nM and the “EC50 of IFNγ release, T cells + MOLP-8 + REGN5458” value (human 4-1BB on cells [6]) was 0.0707 nM. The “EC50 of IFNγ release, T cells + NALM-6” value (human 4-1BB on cells [6]) was 0.0703 nM, the “MAX IFNγ release, T cells + HEK293/CD20 + REGN2281” value (human 4-1BB on cells [6]) was 1910 pg/mL and the “MAX IFNγ release, T cells + HEK293/CD20/CD38 + REGN2281” value (human 4-1BB on cells [6]) was 6050 pg/mL. The “MAX IFNγ release, T cells + MOLP-8 + IsoC” value (human 4-1BB on cells [6]) was 103 pg/mL, the “MAX IFNγ release, T cells + MOLP-8 + REGN5458” value (human 4-1BB on cells [6]) was 3280 pg/mL and the “MAX IFNγ release, T cells + NALM-6” value (human 4-1BB on cells [6]) was 655 pg/mL. The “EC50 of IL-2 release, T cells + NALM6 + Cemiplimab” value (human 4-1BB on cells [7]) was 0.0477 nM, the “EC50 of IL-2 release, T cells + NALM6 + IgG4P” value (human 4-1BB on cells [7]) was 0.0579 nM and the “EC50 of IL-2 release, T cells + NALM6/PD-L1 + Cemiplimab” value (human 4-1BB on cells [7]) was 0.0911 nM. The “EC50 of IL-2 release, T cells + NALM6/PD-L1 + IgG4P” value (human 4-1BB on cells [7]) was 0.117 nM, the “100 nM Ab Bind (RU)” value [8] was 206 RU and the Kd [8] was 0.56 nM. For the same binder, the koff [8] was 0.000351 s⁻¹, the kon [8] was 626000 M⁻¹ s⁻¹ and the t½ [8] was 32.9 min. For the same binder, the “EC50 of IFNγ release, T cells + NALM-6 + IgG4P” value (human 4-1BB on cells [9]) was 0.0815 nM.
